Experimental data from patent US20240116985A1, “STAPLED PEPTIDES AND METHODS THEREOF” (priority 2020, published 2024).
Starred links: 1 amine or outer side, 2 acyl side, 3 side chain; linkers in the order of their positions; H or OH if unused. Positions of bridges follow the written chain, without caps; N, C: chain ends. Non-standard residues stand in square brackets, D forms with d. Primed or numbered codes have the meaning given here. *: point of attachment. PyrS2″ = (S)-3-amino-1-((pent-4-en-1-yloxy)carbonyl)pyrrolidine-3-carboxylic acid (stapling residue), C=CCCCOC(=O)N1CC[C@@](N[*:1])(C(=O)[*:2])C1; B5(4) = 2,2-bis(4-pentenyl)glycine = 2-amino-2-(pent-4-en-1-yl)hept-6-enoic acid (stitching residue), C=CCCCC(CCCC=C)(N[*:1])C(=O)[*:2]; B5(5) = 2,2-bis(4-pentenyl)glycine, 2-amino-2-(pent-4-en-1-yl)hept-6-enoic acid (stitching residue), C=CCCCC(CCCC=C)(N[*:1])C(=O)[*:2]; B5(33) = 2-amino-2-(pent-4-en-1-yl)hept-6-enoic acid (bis-pentenylglycine, two olefin side chains), C=CCCCC(CCCC=C)(N[*:1])C(=O)[*:2]; B5(20) = 2-amino-2-(pent-4-en-1-yl)hept-6-enoic acid = bis(4-pentenyl)glycine, stitching residue, C=CCCCC(CCCC=C)(N[*:1])C(=O)[*:2]; PyrS2 = (S)-3-amino-1-((pent-4-en-1-yloxy)carbonyl)pyrrolidine-3-carboxylic acid, C=CCCCOC(=O)N1CC[C@@](N[*:1])(C(=O)[*:2])C1; B5(3) = 2,2-bis(4-pentenyl)glycine (stitching residue), C=CCCCC(CCCC=C)(N[*:1])C(=O)[*:2]; Ala(4-thiazolyl) = N[C@@H](Cc1cscn1)C(=O)O; Abu(4,4,4-F3) = N[C@@H](CC(F)(F)F)C(=O)O; Phe(2-Cl) = N[C@@H](Cc1ccccc1Cl)C(=O)O; 1Nal = N[C@@H](Cc1cccc2ccccc12)C(=O)O; Abu(4,4-F2) = N[C@@H](CC(F)F)C(=O)O; Bta = N[C@@H](Cc1csc2ccccc12)C(=O)O; αAllylPro = C=CC[C@@]1(C(=O)O)CCCN1; tBuAla = CC(C)(C)C[C@H](N)C(=O)O; 3Thi = N[C@@H](Cc1ccsc1)C(=O)O; S8 = C=CCCCCCC[C@](C)(N)C(=O)O; Dab = NCC[C@H](N)C(=O)O; Nva = CCC[C@H](N)C(=O)O; Abu = CC[C@H](N)C(=O)O; Dap = NC[C@H](N)C(=O)O; Alaol = C[C@@H](CO)N*; Ms = CS(=O)(=O)*

B1: I-1260 (peptide)
peptide: XDXXDDAAFTXFXQ
modifications: not fully specified; MeSO2-PL3-Asp-Npg-B5-Asp-Asp-Ala-Ala-Phe-Thr-S8-2C1F-BztA-Gln-NH2; stapled by olefin metathesis (PL3-B5 and B5-S8)
B2: I-1264 (peptide)
peptide: Ac-[αAllylPro]D[tBuAla][B5(33)]DTLAFT[PyrS2]F[Bta]S-NH2
modifications: staple 1-4, 4-11
B3: I-1265 (peptide)
peptide: Ac-[αAllylPro]D[tBuAla][B5(33)]DTALFT[PyrS2]F[Bta]S-NH2
modifications: staple 1-4, 4-11
B4: I-1250 (peptide)
peptide: Ac-[αAllylPro]D[tBuAla][B5(4)]DDAAFL[PyrS2″][Phe(2-Cl)][Bta]-Alaol
modifications: staple 1-4, 4-11
B5: I-1266 (peptide)
peptide: Ac-[αAllylPro]D[tBuAla][B5(5)]DTAA[1Nal]T[PyrS2″]F[Bta]S-NH2
modifications: staple 1-4, 4-11
B6: I-503 (peptide)
peptide: Ac-[αAllylPro]D[Abu(4,4-F2)][B5(4)]DEAAFQ[S8]F[Bta]Q-NH2
modifications: staple 1-4, 4-11
B7: I-504 (peptide)
peptide: Ac-[αAllylPro]D[Abu(4,4,4-F3)][B5(4)]DEAAFQ[S8]F[Bta]H-NH2
modifications: staple 1-4, 4-11
B8: I-519 (peptide)
peptide: Ac-[αAllylPro]DA[B5(20)]DEAAFN[S8][3Thi][Bta]Q-NH2
modifications: staple 1-4, 4-11; also: later-eluting HPLC peak of staple isomers
B9: I-516 (peptide)
peptide: Ac-[αAllylPro]DA[B5(20)]DEAAFN[S8][3Thi][Bta]H-NH2
modifications: staple 1-4, 4-11; also: later-eluting HPLC peak of staple isomers
B10: I-521 (peptide)
peptide: Ac-[αAllylPro]DI[B5(20)]DEAAFN[S8][3Thi][Bta]Q-NH2
modifications: staple 1-4, 4-11; also: later-eluting HPLC peak of staple isomers
B11: I-524 (peptide)
peptide: Ac-[αAllylPro]DA[B5(4)]DEAA[Ala(4-thiazolyl)]N[S8]F[Bta]Q-NH2
modifications: staple 1-4, 4-11
B12: I-529 (peptide)
peptide: Ac-[αAllylPro]DA[B5(4)][Dap](Ms)EAAFN[S8]F[Bta]Q-NH2
modifications: staple 1-4, 4-11
B13: I-509 (peptide)
peptide: Ac-[αAllylPro]DA[B5(4)]DEAAFQ[S8]F[Bta][Abu]-NH2
modifications: staple 1-4, 4-11
B14: I-531 (peptide)
peptide: Ac-[αAllylPro]DA[B5(4)][Dab](Ms)EAAFN[S8]F[Bta]Q-NH2
modifications: staple 1-4, 4-11
B15: I-523 (peptide)
peptide: Ac-[αAllylPro]D[Nva][B5(4)]DEAAFQ[S8]F[Bta]Q-NH2
modifications: staple 1-4, 4-11; also: later eluting HPLC peak staple isomer
B16: I-530 (peptide)
peptide: Ac-[αAllylPro]DA[B5(4)][Dap](Ms)EAAFN[S8]F[Bta]Q-NH2
modifications: staple 1-4, 4-11
B17: I-532 (peptide)
peptide: Ac-[αAllylPro]DA[B5(4)][Dab](Ms)EAAFN[S8]F[Bta]Q-NH2
modifications: staple 1-4, 4-11
B18: I-517 (peptide)
peptide: Ac-[αAllylPro]DI[B5(20)]DEAAFN[S8][3Thi][Bta]H-NH2
modifications: staple 1-4, 4-11

These binders were tested against full-length beta-Catenin (Uniprot ID P35222) (Homo sapiens (Human)) (UniProt P35222) (assay: fluorescence polarization competition, competitor 5FAM-TCF4 10-53).
Target sequence in this assay (P35222 2-781 limits assumed): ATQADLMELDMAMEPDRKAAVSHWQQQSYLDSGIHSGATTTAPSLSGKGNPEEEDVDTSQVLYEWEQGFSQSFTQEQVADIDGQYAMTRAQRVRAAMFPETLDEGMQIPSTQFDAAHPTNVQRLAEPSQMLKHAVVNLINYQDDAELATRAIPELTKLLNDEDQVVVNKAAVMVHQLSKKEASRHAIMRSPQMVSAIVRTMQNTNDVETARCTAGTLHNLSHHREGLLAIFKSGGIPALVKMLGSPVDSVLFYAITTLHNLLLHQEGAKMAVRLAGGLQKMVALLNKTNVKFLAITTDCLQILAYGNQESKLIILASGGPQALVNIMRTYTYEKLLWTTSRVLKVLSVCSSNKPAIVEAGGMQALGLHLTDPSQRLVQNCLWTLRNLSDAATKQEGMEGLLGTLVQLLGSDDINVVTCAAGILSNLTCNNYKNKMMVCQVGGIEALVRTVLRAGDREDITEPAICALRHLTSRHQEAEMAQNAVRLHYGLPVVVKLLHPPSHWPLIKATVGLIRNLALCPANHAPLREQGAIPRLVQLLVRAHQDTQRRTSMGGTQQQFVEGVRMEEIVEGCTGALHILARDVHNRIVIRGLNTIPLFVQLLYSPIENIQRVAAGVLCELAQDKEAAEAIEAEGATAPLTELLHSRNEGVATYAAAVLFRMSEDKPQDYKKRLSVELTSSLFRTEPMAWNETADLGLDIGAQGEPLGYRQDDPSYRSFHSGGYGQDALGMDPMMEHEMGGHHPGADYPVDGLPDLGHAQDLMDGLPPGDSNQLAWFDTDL
In the case of B1, the IC50 is reported as 0.023 µM.
Work on B2 yielded an IC50 of 0.157 µM.
With B3 the IC50 was 0.152 µM.
In the case of B4, the IC50 is reported as 0.031 µM.
Work on B5 yielded an IC50 of 0.755 µM.

These binders were tested against full-length beta-Catenin (Uniprot ID P35222) (Homo sapiens (Human)) (UniProt P35222) (assay: FP competition: full-length beta-catenin 10 nM + 5FAM-TCF4(10-53) 10 nM).
Target sequence in this assay (P35222 whole entry): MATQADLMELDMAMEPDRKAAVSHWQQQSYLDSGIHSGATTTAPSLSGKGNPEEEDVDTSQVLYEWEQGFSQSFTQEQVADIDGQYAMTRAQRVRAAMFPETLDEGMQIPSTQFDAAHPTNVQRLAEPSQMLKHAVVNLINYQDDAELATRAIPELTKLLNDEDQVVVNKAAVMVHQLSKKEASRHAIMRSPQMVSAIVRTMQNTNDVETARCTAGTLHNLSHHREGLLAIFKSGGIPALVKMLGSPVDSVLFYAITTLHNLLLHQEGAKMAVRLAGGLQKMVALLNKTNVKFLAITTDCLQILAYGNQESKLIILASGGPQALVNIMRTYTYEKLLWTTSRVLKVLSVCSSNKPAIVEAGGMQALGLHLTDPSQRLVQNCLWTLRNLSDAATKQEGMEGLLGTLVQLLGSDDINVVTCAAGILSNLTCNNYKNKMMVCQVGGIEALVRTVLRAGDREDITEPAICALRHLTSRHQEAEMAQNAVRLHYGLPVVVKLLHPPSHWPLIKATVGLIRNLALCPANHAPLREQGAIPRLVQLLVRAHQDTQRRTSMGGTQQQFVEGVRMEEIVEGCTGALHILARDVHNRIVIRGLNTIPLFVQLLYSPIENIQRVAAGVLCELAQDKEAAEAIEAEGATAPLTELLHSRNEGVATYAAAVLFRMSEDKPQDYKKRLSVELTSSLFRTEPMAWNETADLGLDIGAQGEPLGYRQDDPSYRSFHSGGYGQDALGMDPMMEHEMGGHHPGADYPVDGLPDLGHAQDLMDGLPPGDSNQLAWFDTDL
For B6, the IC50 was 0.084 µM.
B7 was tested, and the IC50 was 0.065 µM.
Binder B8 has an IC50 of 0.033 µM.
B9 showed an IC50 of 0.023 µM.
B10 gave an IC50 of 0.023 µM.
In the case of B11, the IC50 is reported as 2.55 µM.
B12 gave an IC50 of 5 µM.
Work on B13 yielded an IC50 of 0.099 µM.
B14 was tested, and the IC50 was 5 µM.
Binder B15 has an IC50 of 0.044 µM.
With B16 the IC50 was 5 µM.
B17 was tested, and the IC50 was 5 µM.
With B18 the IC50 was 0.015 µM.

These binders were tested against full-length beta-Catenin (Uniprot ID P35222) (Homo sapiens (Human)) (UniProt P35222) (assay: FP competition: displacement of 5FAM-TCF4(10-53) from full-length beta-catenin).
Target sequence in this assay (P35222 whole entry): as above
Work on B4 yielded an EC50 of 0.031 µM.

These binders were tested against full-length beta-Catenin (Uniprot ID P35222) (Homo sapiens (Human)) (UniProt P35222) (assay: fluorescence polarization competition; full-length beta-catenin + 5FAM-TCF4(10-53) probe).
Target sequence in this assay (P35222 whole entry): as above
For B1, the EC50 was 0.023 µM.
For B2, the EC50 was 0.157 µM.
B3 showed an EC50 of 0.152 µM.
For B5, the EC50 was 0.755 µM.

The binders below were run against full-length beta-Catenin (Uniprot ID P35222) (Homo sapiens (Human)) (UniProt P35222) (assay: fluorescence polarization competition; 10 nM full-length beta-catenin + 10 nM 5FAM-TCF4(10-53) probe).
Target sequence in this assay (P35222 whole entry): as above
B7 gave an EC50 of 0.065 µM.
B11 gave an EC50 of 2.55 µM.
In the case of B12, the EC50 is reported as 5 µM.
Binder B13 has an EC50 of 0.099 µM.
B14 was tested, and the EC50 was 5 µM.
Work on B16 yielded an EC50 of 5 µM.
With B17 the EC50 was 5 µM.
Binder B18 has an EC50 of 0.015 µM.

What follows are binders tested against full-length beta-Catenin (Uniprot ID P35222) (Homo sapiens (Human)) (UniProt P35222) (assay: fluorescence polarization competition; displacement of 5FAM-TCF4(10-53) from full-length beta-catenin).
Target sequence in this assay (P35222 whole entry): as above
With B6 the EC50 was 0.084 µM.
